Laboratory results: patent WO2016155745A1 (dated 2016)

Key:
[1] = target: T1, full-length human recombinant PAD3 (human, UniProt Q9ULW8 1-664); assay: ELISA, purified mAb 1:100 on PAD-coated plates (Fig. 2)
T1 construct: mature; Full-length recombinant protein coated on plates at 100 ng/mL
T1 sequence (looked up): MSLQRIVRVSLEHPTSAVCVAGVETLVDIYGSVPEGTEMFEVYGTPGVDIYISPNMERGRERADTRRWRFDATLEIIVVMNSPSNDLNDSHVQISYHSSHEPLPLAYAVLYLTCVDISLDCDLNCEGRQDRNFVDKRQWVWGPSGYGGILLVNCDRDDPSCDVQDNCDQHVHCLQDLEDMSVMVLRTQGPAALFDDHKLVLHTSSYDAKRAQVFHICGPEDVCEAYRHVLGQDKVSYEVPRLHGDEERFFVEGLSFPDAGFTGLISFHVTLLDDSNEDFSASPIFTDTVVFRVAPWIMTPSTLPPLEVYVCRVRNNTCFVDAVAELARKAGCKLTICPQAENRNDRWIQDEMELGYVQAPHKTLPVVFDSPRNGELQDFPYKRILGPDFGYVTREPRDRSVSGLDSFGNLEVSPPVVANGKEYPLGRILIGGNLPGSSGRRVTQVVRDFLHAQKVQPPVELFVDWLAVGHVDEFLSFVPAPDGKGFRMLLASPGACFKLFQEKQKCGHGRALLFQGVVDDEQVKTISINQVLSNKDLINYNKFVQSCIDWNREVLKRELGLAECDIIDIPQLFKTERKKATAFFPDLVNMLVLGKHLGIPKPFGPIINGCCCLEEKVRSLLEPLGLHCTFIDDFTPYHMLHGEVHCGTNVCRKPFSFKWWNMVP

[2] = target: full-length human recombinant PAD4 (human, UniProt Q9UM07 1-663); assay: as above
[3] = target: T2, full-length human recombinant PAD2 (human, UniProt Q9Y2J8 1-665); assay: ELISA, culture supernatant 1:20 on PAD2-coated plates (Fig. 3)
T2 construct: also called rhPAD2; recombinant human PAD2

murine recombinant PAD2 = target: T3, murine recombinant PAD2 (mouse, UniProt Q08642 1-673, limits assumed); assay: ELISA, culture supernatant 1:20 on mPAD2-coated plates (Fig. 3)
T3 construct: also called mPAD2; murine PAD2

[4] = target: T2, full-length human recombinant PAD2; assay: ELISA, purified mAb 1:100 on PAD-coated plates (Fig. 2)

Measured: binding result

T3 sequence (Q08642 whole entry): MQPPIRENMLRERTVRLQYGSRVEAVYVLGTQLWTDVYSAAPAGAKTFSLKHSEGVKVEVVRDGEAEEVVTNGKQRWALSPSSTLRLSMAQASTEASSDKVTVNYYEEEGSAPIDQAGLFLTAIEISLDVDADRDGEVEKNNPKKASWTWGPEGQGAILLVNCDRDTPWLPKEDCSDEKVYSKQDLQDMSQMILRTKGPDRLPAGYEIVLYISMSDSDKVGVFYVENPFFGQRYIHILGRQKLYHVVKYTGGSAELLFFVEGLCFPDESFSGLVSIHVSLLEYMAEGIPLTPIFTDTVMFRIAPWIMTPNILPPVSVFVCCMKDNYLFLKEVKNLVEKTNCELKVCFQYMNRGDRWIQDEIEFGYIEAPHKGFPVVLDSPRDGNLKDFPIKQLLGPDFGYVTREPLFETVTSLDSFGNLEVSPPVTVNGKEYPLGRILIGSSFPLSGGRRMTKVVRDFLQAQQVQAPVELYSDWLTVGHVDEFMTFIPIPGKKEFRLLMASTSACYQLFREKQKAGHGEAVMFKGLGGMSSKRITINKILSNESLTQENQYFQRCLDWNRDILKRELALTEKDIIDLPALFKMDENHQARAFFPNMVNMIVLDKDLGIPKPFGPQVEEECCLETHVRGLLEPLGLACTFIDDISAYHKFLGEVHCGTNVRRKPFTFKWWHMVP
T2 sequence (Q9Y2J8 whole entry): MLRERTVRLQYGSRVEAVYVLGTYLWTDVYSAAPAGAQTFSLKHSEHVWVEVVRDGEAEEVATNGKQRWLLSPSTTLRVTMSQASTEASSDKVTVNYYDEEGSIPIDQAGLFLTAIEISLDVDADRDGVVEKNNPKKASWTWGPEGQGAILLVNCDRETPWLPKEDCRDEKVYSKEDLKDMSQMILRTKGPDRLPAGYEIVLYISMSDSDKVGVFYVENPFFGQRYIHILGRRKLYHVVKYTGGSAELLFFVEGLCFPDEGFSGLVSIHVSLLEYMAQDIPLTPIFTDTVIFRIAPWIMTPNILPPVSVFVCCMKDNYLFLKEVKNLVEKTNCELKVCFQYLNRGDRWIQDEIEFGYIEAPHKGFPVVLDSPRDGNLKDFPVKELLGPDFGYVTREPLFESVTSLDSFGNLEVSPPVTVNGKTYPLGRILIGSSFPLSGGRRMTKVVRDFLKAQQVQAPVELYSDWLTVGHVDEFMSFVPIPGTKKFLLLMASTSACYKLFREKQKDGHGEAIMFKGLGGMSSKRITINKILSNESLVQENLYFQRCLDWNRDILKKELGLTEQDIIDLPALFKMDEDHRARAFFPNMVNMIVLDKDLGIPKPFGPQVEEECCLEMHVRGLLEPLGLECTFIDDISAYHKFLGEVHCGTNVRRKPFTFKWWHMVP
Sequence of full-length human recombinant PAD4 (Q9UM07 whole entry): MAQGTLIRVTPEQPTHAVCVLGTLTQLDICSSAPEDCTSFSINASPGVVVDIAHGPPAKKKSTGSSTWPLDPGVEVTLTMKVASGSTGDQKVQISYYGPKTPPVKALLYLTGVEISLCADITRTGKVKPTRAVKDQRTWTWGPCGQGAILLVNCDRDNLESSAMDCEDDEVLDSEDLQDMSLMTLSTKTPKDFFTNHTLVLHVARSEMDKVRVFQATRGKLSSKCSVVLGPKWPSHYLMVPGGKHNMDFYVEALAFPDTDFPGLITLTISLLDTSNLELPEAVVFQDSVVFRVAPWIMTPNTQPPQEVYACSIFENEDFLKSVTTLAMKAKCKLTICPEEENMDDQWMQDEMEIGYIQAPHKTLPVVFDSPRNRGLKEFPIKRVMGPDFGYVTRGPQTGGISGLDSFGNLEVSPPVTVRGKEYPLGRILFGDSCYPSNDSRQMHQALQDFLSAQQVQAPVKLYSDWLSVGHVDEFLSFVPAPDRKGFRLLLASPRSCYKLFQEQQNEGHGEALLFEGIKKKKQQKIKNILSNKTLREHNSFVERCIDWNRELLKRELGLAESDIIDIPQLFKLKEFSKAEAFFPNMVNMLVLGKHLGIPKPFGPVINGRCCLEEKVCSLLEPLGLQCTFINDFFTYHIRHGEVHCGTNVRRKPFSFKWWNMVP

B1: mSol3 (antibody, V domains shown)
VH: EVQLEESGADLVKPGASVKLSCKASGYTFTSYWMHWVKQRPGQGLEWIGEIIPSNGHTNYNEKFKSKATLTVDKSSSTAYMQLSSLTPEDSAVYYCARGRDFFYGFGDYWGQGTTLTVSS
VL: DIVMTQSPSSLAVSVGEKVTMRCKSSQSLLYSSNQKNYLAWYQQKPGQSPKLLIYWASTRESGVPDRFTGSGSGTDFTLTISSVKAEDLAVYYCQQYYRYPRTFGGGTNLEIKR
notes: also called cross-reactive anti-PAD antibody mSol3
not listed: [4]
binds: all other assays above

B2: mSol4 (antibody, V domains shown)
VH: LEESGGDLVKLGGSLKLSCAASGFTFSSYYMSWVRQTPEKRLELVAAIHSDGGNTYYPDTVKGRFTISRDNAKNTLYLQMSSLKSEDTALYYCARHSYYGSSYDYWGQGTTLTVSS
VL: DIVLTQSPLSLPVSLGDQASISCESSQSLVHSNGITYLHWYLQKPGQSPKLLIYKVSHRFSGVPDRFSGSGSGTDFTLKISRVEAVDLGVYFCSQSTHVPFTFGSGTKLEIKR
notes: also called cross-reactive anti-PAD antibody mSol4
not listed: [3]
binds: all other assays above
